This is an account of results in article PMC6753376 (Molecular Systems Biology, 2019).

Experiment [1] addresses C3b (human) (UniProt P01024). Nature of the experiment: cross-linking; quantitative cross-linking mass spectrometry (QCLMS) of C3b alone; C3b monomer and dimer labelled as in Chen et al, 2016c, in-gel digested with trypsin, then sequential digestion.
In experiment [2] the target is T1, Mcm2 (S. cerevisiae, UniProt P29469 1-868).
T1 construct: Mcm2, S. cerevisiae, subunit of MCM2-7 in the OCCM complex; the search database held all 14 OCCM subunits; source: in the OCCM complex assembled on pUC19-ARS1 beads as described elsewhere (Evrin et al, 2009)
T1 sequence (looked up): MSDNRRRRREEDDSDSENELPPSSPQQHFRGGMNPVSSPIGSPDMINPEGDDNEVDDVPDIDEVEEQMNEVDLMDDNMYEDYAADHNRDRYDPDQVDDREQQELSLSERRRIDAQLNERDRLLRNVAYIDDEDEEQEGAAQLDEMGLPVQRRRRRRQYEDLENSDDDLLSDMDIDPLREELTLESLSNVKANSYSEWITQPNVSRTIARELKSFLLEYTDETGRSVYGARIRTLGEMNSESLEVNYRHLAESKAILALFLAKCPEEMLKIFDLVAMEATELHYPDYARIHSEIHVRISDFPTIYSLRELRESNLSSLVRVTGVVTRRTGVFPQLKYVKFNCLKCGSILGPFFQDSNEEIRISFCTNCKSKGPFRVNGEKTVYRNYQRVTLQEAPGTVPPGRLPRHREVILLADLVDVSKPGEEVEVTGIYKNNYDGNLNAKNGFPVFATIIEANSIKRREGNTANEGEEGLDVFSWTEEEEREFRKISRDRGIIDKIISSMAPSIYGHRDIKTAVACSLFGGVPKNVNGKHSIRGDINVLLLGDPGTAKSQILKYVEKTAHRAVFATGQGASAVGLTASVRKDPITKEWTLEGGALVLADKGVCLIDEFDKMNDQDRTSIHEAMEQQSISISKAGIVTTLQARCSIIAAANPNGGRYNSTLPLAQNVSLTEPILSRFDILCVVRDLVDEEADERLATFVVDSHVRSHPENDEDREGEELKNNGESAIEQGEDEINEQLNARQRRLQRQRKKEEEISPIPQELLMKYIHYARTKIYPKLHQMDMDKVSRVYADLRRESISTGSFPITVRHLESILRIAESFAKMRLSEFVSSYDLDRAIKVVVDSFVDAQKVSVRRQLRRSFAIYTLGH
Nature of the experiment: cross-linking; BS3 cross-linking of 200 ug OCCM complex on pUC19-ARS1 beads, 1:8,100 protein to crosslinker molar ratio, 2 h on ice; sequential digestion, SEC, LC-MS/MS, xiSEARCH, 5% FDR. As to conditions: both partners purified.

Experiment [3] concerns the target T2, Mcm6 (S. cerevisiae, UniProt P53091 1-1017).
T2 construct: Mcm6, S. cerevisiae, subunit of MCM2-7 in the OCCM complex; source: in the OCCM complex assembled on pUC19-ARS1 beads as described elsewhere (Evrin et al, 2009)
The experiment is described as above. As to conditions: both partners purified.

By stoichiometry N is commonly meant the number of molecules, sites or subunits per partner or assembly.

T2 sequence (P53091 whole entry): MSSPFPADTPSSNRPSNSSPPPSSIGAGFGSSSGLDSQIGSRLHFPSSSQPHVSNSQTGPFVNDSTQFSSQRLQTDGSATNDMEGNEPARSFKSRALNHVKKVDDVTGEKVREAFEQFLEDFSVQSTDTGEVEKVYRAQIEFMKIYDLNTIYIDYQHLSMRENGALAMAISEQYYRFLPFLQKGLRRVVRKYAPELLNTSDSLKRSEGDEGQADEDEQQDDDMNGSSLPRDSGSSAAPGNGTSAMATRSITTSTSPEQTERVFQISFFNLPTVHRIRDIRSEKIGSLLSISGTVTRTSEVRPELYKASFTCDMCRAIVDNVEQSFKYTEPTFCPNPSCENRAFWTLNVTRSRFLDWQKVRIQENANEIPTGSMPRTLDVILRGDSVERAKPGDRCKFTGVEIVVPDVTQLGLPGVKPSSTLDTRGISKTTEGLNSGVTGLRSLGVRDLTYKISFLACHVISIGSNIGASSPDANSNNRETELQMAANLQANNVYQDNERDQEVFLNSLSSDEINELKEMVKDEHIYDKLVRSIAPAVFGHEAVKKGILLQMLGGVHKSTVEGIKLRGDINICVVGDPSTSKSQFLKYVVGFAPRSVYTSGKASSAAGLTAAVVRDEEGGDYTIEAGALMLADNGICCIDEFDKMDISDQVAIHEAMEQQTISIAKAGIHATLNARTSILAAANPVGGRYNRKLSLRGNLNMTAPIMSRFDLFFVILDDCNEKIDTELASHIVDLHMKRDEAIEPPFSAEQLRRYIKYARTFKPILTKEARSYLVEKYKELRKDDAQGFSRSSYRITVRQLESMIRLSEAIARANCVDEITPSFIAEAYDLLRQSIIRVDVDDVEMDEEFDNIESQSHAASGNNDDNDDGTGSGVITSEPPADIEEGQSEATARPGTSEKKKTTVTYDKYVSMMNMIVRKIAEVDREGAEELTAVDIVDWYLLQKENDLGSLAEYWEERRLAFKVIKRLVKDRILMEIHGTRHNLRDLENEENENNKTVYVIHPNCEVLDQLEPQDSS

“C3b (from UniProt P01024 749-1663; P01024 749-1663) (natural protein)” returned a stoichiometry N in experiment [1] of 2.

B1: Orc5 (natural protein, S. cerevisiae, UniProt P50874 1-479, looked up)
chain: MNVTTPEVAFREYQTNCLASYISADPDITPSNLILQGYSGTGKTYTLKKYFNANPNLHAVWLEPVELVSWKPLLQAIARTVQYKLKTLYPNIPTTDYDPLQVEEPFLLVKTLHNIFVQYESLQEKTCLFLILDGFDSLQDLDAALFNKYIKLNELLPKDSKINIKFIYTMLETSFLQRYSTHCIPTVMFPRYNVDEVSTILVMSRCGELMEDSCLRKRIIEEQITDCTDDQFQNVAANFIHLIVQAFHSYTGNDIFALNDLIDFKWPKYVSRITKENIFEPLALYKSAIKLFLSTDDNLSENGQGESAITTNRDDLENSQTYDLSIISKYLLIASYICSYLEPRYDASIFSRKTRIIQGRAAYGRRKKKEVNPRYLQPSLFAIERLLAIFQAIFPIQGKAESGSLSALREESLMKANIEVFQNLSELHTLKLIATTMNKNIDYLSPKVRWKVNVPWEIIKEISESVHFNISDYFSDIHE
notes: Orc5, S. cerevisiae, subunit of ORC in the OCCM complex; source: in the OCCM complex assembled on pUC19-ARS1 beads as described elsewhere (Evrin et al, 2009)
In the case of B1, the binding result in experiment [2] is on record as “binds”.

B2: Orc2 (natural protein, S. cerevisiae, UniProt P32833 1-620, looked up)
chain: MLNGEDFVEHNDILSSPAKSRNVTPKRVDPHGERQLRRIHSSKKNLLERISLVGNERKNTSPDPALKPKTPSKAPRKRGRPRKIQEELTDRIKKDEKDTISSKKKRKLDKDTSGNVNEESKTSNNKQVMEKTGIKEKREREKIQVATTTYEDNVTPQTDDNFVSNSPEPPEPATPSKKSLTTNHDFTSPLKQIIMNNLKEYKDSTSPGKLTLSRNFTPTPVPKNKKLYQTSETKSASSFLDTFEGYFDQRKIVRTNAKSRHTMSMAPDVTREEFSLVSNFFNENFQKRPRQKLFEIQKKMFPQYWFELTQGFSLLFYGVGSKRNFLEEFAIDYLSPKIAYSQLAYENELQQNKPVNSIPCLILNGYNPSCNYRDVFKEITDLLVPAELTRSETKYWGNHVILQIQKMIDFYKNQPLDIKLILVVHNLDGPSIRKNTFQTMLSFLSVIRQIAIVASTDHIYAPLLWDNMKAQNYNFVFHDISNFEPSTVESTFQDVMKMGKSDTSSGAEGAKYVLQSLTVNSKKMYKLLIETQMQNMGNLSANTGPKRGTQRTGVELKLFNHLCAADFIASNEIALRSMLREFIEHKMANITKNNSGMEIIWVPYTYAELEKLLKTVLNTL
notes: Orc2, S. cerevisiae, subunit of ORC in the OCCM complex; source: in the OCCM complex assembled on pUC19-ARS1 beads as described elsewhere (Evrin et al, 2009)
B2: the binding result in experiment [2] was “binds”.

B3: Cdt1 (natural protein, S. cerevisiae, UniProt P47112 1-604, looked up)
chain: MSGTANSRRKEVLRVPVIDLNRVSDEEQLLPVVRAILLQHDTFLLKNYANKAVLDALLAGLTTKDLPDTSQGFDANFTGTLPLEDDVWLEQYIFDTDPQLRFDRKCRNESLCSIYSRLFKLGLFFAQLCVKSVVSSAELQDCISTSHYATKLTRYFNDNGSTHDGADAGATVLPTGDDFQYLFERDYVTFLPTGVLTIFPCAKAIRYKPSTMATTDNSWVSIDEPDCLLFHTGTLLARWSQGMHTTSPLQIDPRANIVSLTIWPPLTTPISSKGEGTIANHLLEQQIKAFPKVAQQYYPRELSILRLQDAMKFVKELFTVCETVLSLNALSRSTGVPPELHVLLPQISSMMKRKIVQDDILKLLTIWSDAYVVELNSRGELTMNLPKRDNLTTLTNKSRTLAFVERAESWYQQVIASKDEIMTDVPAFKINKRRSSSNSKTVLSSKVQTKSSNANALNNSRYLANSKENFMYKEKMPDSQANLMDRLRERERRSAALLSQRQKRYQQFLAMKMTQVFDILFSLTRGQPYTETYLSSLIVDSLQDSNNPIGTKEASEILAGLQGILPMDISVHQVDGGLKVYRWNSLDKNRFSKLLQIHKSKQQD
notes: Cdt1, S. cerevisiae, subunit of the OCCM complex; source: in the OCCM complex assembled on pUC19-ARS1 beads as described elsewhere (Evrin et al, 2009)
Regarding B3, the binding result in experiment [3] is “binds”.
